The binders below were run against T1, Human CD137 ECD (human) (assay: SPR, vs parent H183/L072).
T1 construct: also called 4-1BB
T1 sequence (chain, as listed by the source limits assumed): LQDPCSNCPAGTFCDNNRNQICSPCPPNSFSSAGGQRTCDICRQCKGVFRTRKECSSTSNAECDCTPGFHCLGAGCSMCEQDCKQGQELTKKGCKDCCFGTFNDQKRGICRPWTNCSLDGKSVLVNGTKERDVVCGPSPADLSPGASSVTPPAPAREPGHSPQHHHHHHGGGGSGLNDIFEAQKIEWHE

Row | Binder | fold change of affinity [fold]
1 | dBBDu183H K64V / dBBDu072L (antibody, name in Kabat numbering, V domains shown, as m1, one VH change) VH: QVQLVESGGGLVQPGRSLRLSCAASGFTFSNAWMHWVRQAPGKGLEWVAQIKDKGNAYAAYYAPSVVGRFTISRDDSKNSIYLQMNSLKTEDTAVYYCHYVHYASASTVLPAFGVDAWGQGTTVTVSS VL: DIVMTQSPLSLPVTPGEPASISCQASQELVHMNRNTYLHWYQQKPGQAPRLLIYKVSNRFPGVPDRFSGSGSGTDFTLKISRVEAEDVGVYYCAQGTSVPFTFGQGTKLEIK | 1
2 | dBBDu183H L100dK / dBBDu072L (antibody, name in Kabat numbering, V domains shown, as m1, one VH change) VH: QVQLVESGGGLVQPGRSLRLSCAASGFTFSNAWMHWVRQAPGKGLEWVAQIKDKGNAYAAYYAPSVKGRFTISRDDSKNSIYLQMNSLKTEDTAVYYCHYVHYASASTVKPAFGVDAWGQGTTVTVSS VL: DIVMTQSPLSLPVTPGEPASISCQASQELVHMNRNTYLHWYQQKPGQAPRLLIYKVSNRFPGVPDRFSGSGSGTDFTLKISRVEAEDVGVYYCAQGTSVPFTFGQGTKLEIK | 0.7
3 | dBBDu183H P61Q / dBBDu072L (antibody, name in Kabat numbering, V domains shown, as m1, one VH change) VH: QVQLVESGGGLVQPGRSLRLSCAASGFTFSNAWMHWVRQAPGKGLEWVAQIKDKGNAYAAYYAQSVKGRFTISRDDSKNSIYLQMNSLKTEDTAVYYCHYVHYASASTVLPAFGVDAWGQGTTVTVSS VL: DIVMTQSPLSLPVTPGEPASISCQASQELVHMNRNTYLHWYQQKPGQAPRLLIYKVSNRFPGVPDRFSGSGSGTDFTLKISRVEAEDVGVYYCAQGTSVPFTFGQGTKLEIK | 0.6
4 | dBBDu183H P61S / dBBDu072L (antibody, name in Kabat numbering, V domains shown, as m1, one VH change) VH: QVQLVESGGGLVQPGRSLRLSCAASGFTFSNAWMHWVRQAPGKGLEWVAQIKDKGNAYAAYYASSVKGRFTISRDDSKNSIYLQMNSLKTEDTAVYYCHYVHYASASTVLPAFGVDAWGQGTTVTVSS VL: DIVMTQSPLSLPVTPGEPASISCQASQELVHMNRNTYLHWYQQKPGQAPRLLIYKVSNRFPGVPDRFSGSGSGTDFTLKISRVEAEDVGVYYCAQGTSVPFTFGQGTKLEIK | 1.1
5 | dBBDu183H P61N / dBBDu072L (antibody, name in Kabat numbering, V domains shown, as m1, one VH change) VH: QVQLVESGGGLVQPGRSLRLSCAASGFTFSNAWMHWVRQAPGKGLEWVAQIKDKGNAYAAYYANSVKGRFTISRDDSKNSIYLQMNSLKTEDTAVYYCHYVHYASASTVLPAFGVDAWGQGTTVTVSS VL: DIVMTQSPLSLPVTPGEPASISCQASQELVHMNRNTYLHWYQQKPGQAPRLLIYKVSNRFPGVPDRFSGSGSGTDFTLKISRVEAEDVGVYYCAQGTSVPFTFGQGTKLEIK | 1.2
6 | dBBDu183H K64Y / dBBDu072L (antibody, name in Kabat numbering, V domains shown, as m1, one VH change) VH: QVQLVESGGGLVQPGRSLRLSCAASGFTFSNAWMHWVRQAPGKGLEWVAQIKDKGNAYAAYYAPSVYGRFTISRDDSKNSIYLQMNSLKTEDTAVYYCHYVHYASASTVLPAFGVDAWGQGTTVTVSS VL: DIVMTQSPLSLPVTPGEPASISCQASQELVHMNRNTYLHWYQQKPGQAPRLLIYKVSNRFPGVPDRFSGSGSGTDFTLKISRVEAEDVGVYYCAQGTSVPFTFGQGTKLEIK | 1.1
7 | dBBDu183H L100dV / dBBDu072L (antibody, name in Kabat numbering, V domains shown, as m1, one VH change) VH: QVQLVESGGGLVQPGRSLRLSCAASGFTFSNAWMHWVRQAPGKGLEWVAQIKDKGNAYAAYYAPSVKGRFTISRDDSKNSIYLQMNSLKTEDTAVYYCHYVHYASASTVVPAFGVDAWGQGTTVTVSS VL: DIVMTQSPLSLPVTPGEPASISCQASQELVHMNRNTYLHWYQQKPGQAPRLLIYKVSNRFPGVPDRFSGSGSGTDFTLKISRVEAEDVGVYYCAQGTSVPFTFGQGTKLEIK | 0.5
8 | dBBDu183H P61D / dBBDu072L (antibody, name in Kabat numbering, V domains shown, as m1, one VH change) VH: QVQLVESGGGLVQPGRSLRLSCAASGFTFSNAWMHWVRQAPGKGLEWVAQIKDKGNAYAAYYADSVKGRFTISRDDSKNSIYLQMNSLKTEDTAVYYCHYVHYASASTVLPAFGVDAWGQGTTVTVSS VL: DIVMTQSPLSLPVTPGEPASISCQASQELVHMNRNTYLHWYQQKPGQAPRLLIYKVSNRFPGVPDRFSGSGSGTDFTLKISRVEAEDVGVYYCAQGTSVPFTFGQGTKLEIK | 0.7
9 | dBBDu183H L100dQ / dBBDu072L (antibody, name in Kabat numbering, V domains shown, as m1, one VH change) VH: QVQLVESGGGLVQPGRSLRLSCAASGFTFSNAWMHWVRQAPGKGLEWVAQIKDKGNAYAAYYAPSVKGRFTISRDDSKNSIYLQMNSLKTEDTAVYYCHYVHYASASTVQPAFGVDAWGQGTTVTVSS VL: DIVMTQSPLSLPVTPGEPASISCQASQELVHMNRNTYLHWYQQKPGQAPRLLIYKVSNRFPGVPDRFSGSGSGTDFTLKISRVEAEDVGVYYCAQGTSVPFTFGQGTKLEIK | 0.5
10 | dBBDu183H L100dW / dBBDu072L (antibody, name in Kabat numbering, V domains shown, as m1, one VH change) VH: QVQLVESGGGLVQPGRSLRLSCAASGFTFSNAWMHWVRQAPGKGLEWVAQIKDKGNAYAAYYAPSVKGRFTISRDDSKNSIYLQMNSLKTEDTAVYYCHYVHYASASTVWPAFGVDAWGQGTTVTVSS VL: DIVMTQSPLSLPVTPGEPASISCQASQELVHMNRNTYLHWYQQKPGQAPRLLIYKVSNRFPGVPDRFSGSGSGTDFTLKISRVEAEDVGVYYCAQGTSVPFTFGQGTKLEIK | 0.2
11 | dBBDu183H L100dE / dBBDu072L (antibody, name in Kabat numbering, V domains shown, as m1, one VH change) VH: QVQLVESGGGLVQPGRSLRLSCAASGFTFSNAWMHWVRQAPGKGLEWVAQIKDKGNAYAAYYAPSVKGRFTISRDDSKNSIYLQMNSLKTEDTAVYYCHYVHYASASTVEPAFGVDAWGQGTTVTVSS VL: DIVMTQSPLSLPVTPGEPASISCQASQELVHMNRNTYLHWYQQKPGQAPRLLIYKVSNRFPGVPDRFSGSGSGTDFTLKISRVEAEDVGVYYCAQGTSVPFTFGQGTKLEIK | 0.4
12 | dBBDu183H P61G / dBBDu072L (antibody, name in Kabat numbering, V domains shown, as m1, one VH change) VH: QVQLVESGGGLVQPGRSLRLSCAASGFTFSNAWMHWVRQAPGKGLEWVAQIKDKGNAYAAYYAGSVKGRFTISRDDSKNSIYLQMNSLKTEDTAVYYCHYVHYASASTVLPAFGVDAWGQGTTVTVSS VL: DIVMTQSPLSLPVTPGEPASISCQASQELVHMNRNTYLHWYQQKPGQAPRLLIYKVSNRFPGVPDRFSGSGSGTDFTLKISRVEAEDVGVYYCAQGTSVPFTFGQGTKLEIK | 1
13 | dBBDu183H P61E / dBBDu072L (antibody, name in Kabat numbering, V domains shown, as m1, one VH change) VH: QVQLVESGGGLVQPGRSLRLSCAASGFTFSNAWMHWVRQAPGKGLEWVAQIKDKGNAYAAYYAESVKGRFTISRDDSKNSIYLQMNSLKTEDTAVYYCHYVHYASASTVLPAFGVDAWGQGTTVTVSS VL: DIVMTQSPLSLPVTPGEPASISCQASQELVHMNRNTYLHWYQQKPGQAPRLLIYKVSNRFPGVPDRFSGSGSGTDFTLKISRVEAEDVGVYYCAQGTSVPFTFGQGTKLEIK | 0.7
14 | dBBDu183H P61T / dBBDu072L (antibody, name in Kabat numbering, V domains shown, as m1, one VH change) VH: QVQLVESGGGLVQPGRSLRLSCAASGFTFSNAWMHWVRQAPGKGLEWVAQIKDKGNAYAAYYATSVKGRFTISRDDSKNSIYLQMNSLKTEDTAVYYCHYVHYASASTVLPAFGVDAWGQGTTVTVSS VL: DIVMTQSPLSLPVTPGEPASISCQASQELVHMNRNTYLHWYQQKPGQAPRLLIYKVSNRFPGVPDRFSGSGSGTDFTLKISRVEAEDVGVYYCAQGTSVPFTFGQGTKLEIK | 1.4
15 | dBBDu183H P61H / dBBDu072L (antibody, name in Kabat numbering, V domains shown, as m1, one VH change) VH: QVQLVESGGGLVQPGRSLRLSCAASGFTFSNAWMHWVRQAPGKGLEWVAQIKDKGNAYAAYYAHSVKGRFTISRDDSKNSIYLQMNSLKTEDTAVYYCHYVHYASASTVLPAFGVDAWGQGTTVTVSS VL: DIVMTQSPLSLPVTPGEPASISCQASQELVHMNRNTYLHWYQQKPGQAPRLLIYKVSNRFPGVPDRFSGSGSGTDFTLKISRVEAEDVGVYYCAQGTSVPFTFGQGTKLEIK | 0.9
16 | dBBDu183H P61R / dBBDu072L (antibody, name in Kabat numbering, V domains shown, as m1, one VH change) VH: QVQLVESGGGLVQPGRSLRLSCAASGFTFSNAWMHWVRQAPGKGLEWVAQIKDKGNAYAAYYARSVKGRFTISRDDSKNSIYLQMNSLKTEDTAVYYCHYVHYASASTVLPAFGVDAWGQGTTVTVSS VL: DIVMTQSPLSLPVTPGEPASISCQASQELVHMNRNTYLHWYQQKPGQAPRLLIYKVSNRFPGVPDRFSGSGSGTDFTLKISRVEAEDVGVYYCAQGTSVPFTFGQGTKLEIK | 1
17 | dBBDu183H P61K / dBBDu072L (antibody, name in Kabat numbering, V domains shown, as m1, one VH change) VH: QVQLVESGGGLVQPGRSLRLSCAASGFTFSNAWMHWVRQAPGKGLEWVAQIKDKGNAYAAYYAKSVKGRFTISRDDSKNSIYLQMNSLKTEDTAVYYCHYVHYASASTVLPAFGVDAWGQGTTVTVSS VL: DIVMTQSPLSLPVTPGEPASISCQASQELVHMNRNTYLHWYQQKPGQAPRLLIYKVSNRFPGVPDRFSGSGSGTDFTLKISRVEAEDVGVYYCAQGTSVPFTFGQGTKLEIK | 0.8
18 | dBBDu183H K64W / dBBDu072L (antibody, name in Kabat numbering, V domains shown, as m1, one VH change) VH: QVQLVESGGGLVQPGRSLRLSCAASGFTFSNAWMHWVRQAPGKGLEWVAQIKDKGNAYAAYYAPSVWGRFTISRDDSKNSIYLQMNSLKTEDTAVYYCHYVHYASASTVLPAFGVDAWGQGTTVTVSS VL: DIVMTQSPLSLPVTPGEPASISCQASQELVHMNRNTYLHWYQQKPGQAPRLLIYKVSNRFPGVPDRFSGSGSGTDFTLKISRVEAEDVGVYYCAQGTSVPFTFGQGTKLEIK | 1.2
19 | dBBDu183H L100dS / dBBDu072L (antibody, name in Kabat numbering, V domains shown, as m1, one VH change) VH: QVQLVESGGGLVQPGRSLRLSCAASGFTFSNAWMHWVRQAPGKGLEWVAQIKDKGNAYAAYYAPSVKGRFTISRDDSKNSIYLQMNSLKTEDTAVYYCHYVHYASASTVSPAFGVDAWGQGTTVTVSS VL: DIVMTQSPLSLPVTPGEPASISCQASQELVHMNRNTYLHWYQQKPGQAPRLLIYKVSNRFPGVPDRFSGSGSGTDFTLKISRVEAEDVGVYYCAQGTSVPFTFGQGTKLEIK | 0.5
20 | dBBDu183H P61W / dBBDu072L (antibody, name in Kabat numbering, V domains shown, as m1, one VH change) VH: QVQLVESGGGLVQPGRSLRLSCAASGFTFSNAWMHWVRQAPGKGLEWVAQIKDKGNAYAAYYAWSVKGRFTISRDDSKNSIYLQMNSLKTEDTAVYYCHYVHYASASTVLPAFGVDAWGQGTTVTVSS VL: DIVMTQSPLSLPVTPGEPASISCQASQELVHMNRNTYLHWYQQKPGQAPRLLIYKVSNRFPGVPDRFSGSGSGTDFTLKISRVEAEDVGVYYCAQGTSVPFTFGQGTKLEIK | 0.8
21 | dBBDu183H P61F / dBBDu072L (antibody, name in Kabat numbering, V domains shown, as m1, one VH change) VH: QVQLVESGGGLVQPGRSLRLSCAASGFTFSNAWMHWVRQAPGKGLEWVAQIKDKGNAYAAYYAFSVKGRFTISRDDSKNSIYLQMNSLKTEDTAVYYCHYVHYASASTVLPAFGVDAWGQGTTVTVSS VL: DIVMTQSPLSLPVTPGEPASISCQASQELVHMNRNTYLHWYQQKPGQAPRLLIYKVSNRFPGVPDRFSGSGSGTDFTLKISRVEAEDVGVYYCAQGTSVPFTFGQGTKLEIK | 0.7

From patent US20210388087A1 (Chugai, published 2021)
